In US20250099579A1 (MARENGO THERAPEUTICS, published 2025):

Columns and labels:
Vβ6 TCR on human T cells [1] = molecular target: Vβ6 TCR on human T cells (human); experiment: cell-based or functional assay
human IL2R beta-gamma = molecular target: T1, human IL2R beta-gamma (human, UniProt P14784 27-239; P31785 23-262); experiment: SPR (Biacore T200), BKM0186 captured via anti-human Fc on CM5 chip, receptor as analyte, 1:1 Langmuir model
T1 construct: Soluble heterodimer used as analyte; also called Human IL-2Rβγ; IL-2Rβγ heterodimer
T1 sequence (looked up) 1: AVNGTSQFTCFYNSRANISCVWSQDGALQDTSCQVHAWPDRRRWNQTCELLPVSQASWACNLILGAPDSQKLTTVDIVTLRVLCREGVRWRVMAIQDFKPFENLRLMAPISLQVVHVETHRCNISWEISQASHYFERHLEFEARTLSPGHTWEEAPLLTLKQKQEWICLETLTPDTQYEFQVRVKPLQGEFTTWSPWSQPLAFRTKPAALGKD
T1 sequence (looked up) 2: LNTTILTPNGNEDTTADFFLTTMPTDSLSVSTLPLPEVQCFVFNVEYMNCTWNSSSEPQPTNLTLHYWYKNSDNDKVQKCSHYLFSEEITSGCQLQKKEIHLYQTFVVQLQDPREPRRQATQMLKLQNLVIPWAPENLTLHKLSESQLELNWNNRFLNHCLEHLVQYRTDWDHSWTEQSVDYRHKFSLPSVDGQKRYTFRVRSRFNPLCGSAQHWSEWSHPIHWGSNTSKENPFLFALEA
Experimental: (§1) All interactions between bispecifics and relevant receptors were analyzed by Surface Plasmon Resonance (SPR) on a Biacore T200 instrument.
(§2) BKM0186 at 2 μg/mL was immobilized on a Series S CM5 chip via human Fe antibody to 80 RU. Human IL2Ra and cynomolgus IL2Ra were diluted to 500 nM, human IL2R beta-gamma and cynomolgus IL2R beta-gamma were diluted to 125 nM, and human IL2R trimeric complex was diluted to 50 nM and then serially diluted two-fold in 1×HBS-EP+ buffer for a total of 10 concentrations. Multi cycle kinetics was run where the chip is regenerated with 3 M Magnesium Chloride between each cycle followed by a new injection of BKM0186. An association time of 120 seconds and a dissociation time of 150 seconds for human and cyno IL2Ra, 300 seconds for human and cyno IL2R beta-gamma, and 900 seconds for the human IL2R trimeric complex was done at 30 uL/min. This assay was run in 1×HBS-EP+ Buffer pH 7.4 and 25 C. Sensorgrams were corrected by double reference subtraction using the reference flow cell not treated with BKM0186 and a blank cycle of buffer alone. BIAevaluation software was used for data analysis and the data were fit using a 1:1 Langmuir binding model for calculation of the KD value (Koff/Kon). Due to faster off rates observed for human and cyno IL2Ra binding, the data were fit using a steady state model where equilibrium binding response is analyzed.

[2] = molecular target: T2, cynomolgus IL2R beta-gamma (cynomolgus); experiment: as above
T2 construct: also called Cyno IL-2Rβγ
Experimental: as §1, §2

Human IL2Ra = molecular target: T3, Human IL2Ra (human, UniProt P01589 22-213, limits assumed); experiment: SPR (Biacore T200), BKM0186 captured via anti-human Fc on CM5 chip, receptor as analyte, steady state model
T3 construct: also called Human IL-2Rα; CD25
T3 sequence (looked up): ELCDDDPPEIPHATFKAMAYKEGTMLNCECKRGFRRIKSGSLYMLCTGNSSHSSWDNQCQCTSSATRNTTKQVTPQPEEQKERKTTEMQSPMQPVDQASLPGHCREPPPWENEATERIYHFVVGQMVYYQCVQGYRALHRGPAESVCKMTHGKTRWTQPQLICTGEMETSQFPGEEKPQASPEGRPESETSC
Experimental: as §1, §2

cynomolgus IL2Ra = molecular target: T4, cynomolgus IL2Ra (cynomolgus, UniProt H6WS54 22-213); experiment: as above
T4 construct: also called Cyno IL-2Rα
T4 sequence: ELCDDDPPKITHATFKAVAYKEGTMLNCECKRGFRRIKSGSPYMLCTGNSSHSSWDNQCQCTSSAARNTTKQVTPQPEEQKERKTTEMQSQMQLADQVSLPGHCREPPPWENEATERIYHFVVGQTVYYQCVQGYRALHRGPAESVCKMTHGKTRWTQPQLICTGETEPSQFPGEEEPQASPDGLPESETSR
Experimental: as §1, §2

[3] = molecular target: T5, human IL2R trimeric complex (human, UniProt P01589 22-213; P14784 27-239; P31785 23-262); experiment: SPR (Biacore T200), BKM0186 captured via anti-human Fc on CM5 chip, receptor complex as analyte, 1:1 Langmuir model
T5 construct: also called Human IL-2Rαβγ
T5 sequence (looked up) 1: T3 sequence (looked up)
T5 sequence (looked up) 2: T1 sequence (looked up) 1
T5 sequence (looked up) 3: T1 sequence (looked up) 2
Experimental: as §1, §2

Vβ6 TCR on human T cells [4] = molecular target: T6, Vβ6 TCR on human T cells (human); experiment: flow cytometry on sorted, activated TCRVβ6-5 positive CD25 hi human T cells (cells carry both Vβ6 TCR and CD25; co-operative binding)
T6 construct: whole, on cells; Polyclonal T cells: CDR3 and the paired alpha chains vary; also called Vβ6 T cells; TCRVβ6-5
T6 sequence (A0A0K0K1A5 22-114): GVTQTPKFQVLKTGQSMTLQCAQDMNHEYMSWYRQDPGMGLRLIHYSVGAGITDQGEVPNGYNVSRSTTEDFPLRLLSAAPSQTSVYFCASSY
Excerpt: Pan T-cells were isolated from PBMC's via negative selection on the autoMACS. T-cells were stained for TCRVβ6-5 and sorted on the Sony SH800 cell sorter into cell culture media. Sorted TCRVβ6-5 T-cells and non-sorted pan T-cells were activated and expanded using anti-CD3/CD28 beads followed by IL-2 culture. Portion of activated T-cells were allowed to rest for 3-days in serum-free media. Anti-CD25 FACS staining to confirm CD25 upregulation (from activation) and downmodulation (from resting). T-cells that represents TCRVβ6-5(pos) CD25(hi); TCRVβ6-5(pos) CD25(low); TCRVβ6-5(neg) CD25(hi); TCRVβ6-5(neg) CD25(low) are checked for BKM0186 construct binding.
This avidity effect confirms that BKM0186 engages both Vβ6 and IL-2R via a cis binding mode.

Human Vβ6 TCR = molecular target: T7, Human Vβ6 TCR (human); experiment: SPR (Biacore T200), BKM0186 captured via anti-human Fc on CM5 chip (80 RU), TCR as analyte, multi cycle kinetics, 1:1 Langmuir model, 25 C
T7 construct: The method text calls it Human Vβ6 TCR; also called Human TCRVβ
Experimental: as §1
(§3) BKM0186 at 2 μg/mL was immobilized on a Series S CM5 chip via human Fe antibody to 80 RU. Human Vβ6 TCR and cynomolgus Vβ6 TCR were diluted to 250 nM and then serially diluted two-fold in 1×HBS-EP+ buffer for a total of 10 concentrations. Multi cycle kinetics was done with an association time of 120 seconds and a dissociation time of 600 seconds, for human Vβ6 TCR and 300 seconds for cynomolgus Vβ6 TCR at 30 uL/min. This assay was run in 1×HBS-EP+ Buffer pH 7.4 at 25 C. Sensorgrams were corrected by reference subtraction using the reference flow cell not treated with BKM0186. BIAevaluation software was used for data analysis and the data were fit using a 1:1 Langmuir binding model for calculation of the KD value (Koff/Kₒₙ).

cynomolgus Vβ6 TCR = molecular target: T8, cynomolgus Vβ6 TCR (cynomolgus); experiment: as above
T8 construct: also called Cyno TCRVβ
Experimental: as §1, §3

B1: BKM0186 (bispecific antibody, human IgG1, kappa, N297A)
heavy: QVQLVQSGAEVKKPGSSVKVSCKASGHDFRLTYIHWVRQAPGQGLEWMGRVSAGSGNVKYNEKFKGRVTITADTSTSTAYMELSSLRSEDTAVYYCAVSYYSYDVLDYWGQGTTVTVSSASTKGPSVFPLAPSSKSTSGGTAALGCLVKDYFPEPVTVSWNSGALTSGVHTFPAVLQSSGLYSLSSVVTVPSSSLGTQTYICNVNHKPSNTKVDKRVEPKSCDKTHTCPPCPAPELLGGPSVFLFPPKPKDTLMISRTPEVTCVVVDVSHEDPEVKFNWYVDGVEVHNAKTKPREEQYASTYRVVSVLTVLHQDWLNGKEYKCKVSNKALPAPIEKTISKAKGQPREPQVCTLPPSREEMTKNQVSLSCAVKGFYPSDIAVEWESNGQPENNYKTTPPVLDSDGSFFLVSKLTVDKSRWQQGNVFSCSVMHEALHNHYTQKSLSLSPGK
chain: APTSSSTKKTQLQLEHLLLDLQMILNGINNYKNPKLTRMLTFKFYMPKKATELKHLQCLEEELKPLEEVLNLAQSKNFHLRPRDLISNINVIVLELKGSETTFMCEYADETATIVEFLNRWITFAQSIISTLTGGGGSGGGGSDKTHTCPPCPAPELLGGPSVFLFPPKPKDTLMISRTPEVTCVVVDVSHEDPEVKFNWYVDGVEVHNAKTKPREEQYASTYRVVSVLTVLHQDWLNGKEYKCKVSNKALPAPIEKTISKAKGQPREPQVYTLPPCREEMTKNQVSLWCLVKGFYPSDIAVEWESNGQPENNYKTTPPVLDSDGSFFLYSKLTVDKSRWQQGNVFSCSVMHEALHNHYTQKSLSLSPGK
light: DIQMTQSPSFLSASVGDRVTITCKASQNVADRVVWHQQKPGKAPKALIYSSSHRYKGVPSRFSGSGSGTEFTLTISSLQPEDFATYFCQQFKSYPLTFGQGTKLEIKRTVAAPSVFIFPPSDEQLKSGTASVVCLLNNFYPREAKVQWKVDNALQSGNSQESVTEQDSKDSTYSLSSTLTLSKADYEKHKVYACEVTHQGLSSPVTKSFNRGEC
notes: also called TCRVβ/IL-2 (C125A) bispecific; IL2xTCRVβ
- EC50 of proliferation of Vβ6 T cells as a proportion of total CD4+ T cells (human PBMCs, 5 days) (Vβ6 TCR on human T cells [1]): 12 nM
- EC50 of proliferation of Vβ6 T cells as a proportion of total CD8+ T cells (human PBMCs, 5 days) (Vβ6 TCR on human T cells [1]): 6 nM
- Kd (human IL2R beta-gamma): 3.8 nM
- Kd [2]: 3.3 nM
- Kd (Human IL2Ra): 45 nM
- Kd (cynomolgus IL2Ra): 48 nM
- Kd [3]: 0.1 nM
- EC50 (Vβ6 TCR on human T cells [4]): 0.5 nM
- Kd (Human Vβ6 TCR): 1.7 nM
- Kd (cynomolgus Vβ6 TCR): 4.9 nM
